Reference: publication PMC314469, “Protein Interaction Networks by Proteome Peptide Scanning” (PLoS Biology, 2004)

B1: YMR012W 146-159 (peptide)
chain: SSLPLGPIKERSKQ
B2: YGR268C 71-84 (peptide)
chain: SSQPRPPPRPQQNP
B3: YKL185W 424-437 (peptide)
chain: SPSPSTPTKSGKMR
B4: YJR033C 1337-1350 (peptide)
chain: SQKPQKPKKSAITK
B5: YMR198W 453-466 (peptide)
chain: SQQPTAPMKKTLLK
B6: YMR068W 249-262 (peptide)
chain: SPLPVLPRRISTHT
B7: YBR198C 108-121 (peptide)
chain: SSIPPNPGKTAKPI
B8: YIL095W 747-760 (peptide)
chain: SRPPRPPPKPLHLR
B9: YNL080C 295-308 (peptide)
chain: SQSPKRPKKYPKKA
B10: YNL298W 402-415 (peptide)
chain: SPSPLNPYRPHHNM
B11: YMR255W 106-119 (peptide)
chain: SPPPVSPSKMKTTK
B12: YIL156W 547-560 (peptide)
chain: SRKPPIPAKQHVKK
B13: YLR430W 2218-2231 (peptide)
chain: SSSPFIPKKRKPRS
B14: YPR171W 184-197 (peptide)
chain: SSPPPLPTRRDHIK
B15: YLR183C 3-16 (peptide)
chain: SQFPSSPYRTVDPY
B16: YER006W 232-245 (peptide)
chain: SSFPTIPLRASSGA
B17: YLR147C 88-101 (peptide)
chain: SSRPMPPIRGPKRR
B18: YER173W 28-41 (peptide)
chain: SSRPTSPVRKARST
B19: YDL117W 117-130 (peptide)
chain: SSMPNSPKKPVDSL
B20: YIL034C 92-105 (peptide)
chain: SPFPSAPLRKLEIL
B21: YOL006C 72-85 (peptide)
chain: SSLPSPPAKKSATS
B22: YOL004W 293-306 (peptide)
chain: SSNPDDPIRVTTPM

Target: T1, Boi1 SH3 (BOI1_YEAST), P38041
T1 chain: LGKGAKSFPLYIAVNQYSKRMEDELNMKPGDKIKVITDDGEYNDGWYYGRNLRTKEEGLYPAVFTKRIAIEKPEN
Experiment: SPOT array

Point of comparison: B19, normalised SPOT signal, Boehringer light units (BLU); mean over the file's lines of this peptide 78.9. Against it:
- B1 — higher, 120
- B2 — lower, 69.2
- B3 — higher, 278
- B4 — higher, 87.8
- B5 — higher, 343
- B6 — higher, 8950
- B7 — lower, 71.5
- B8 — higher, 100
- B9 — lower, 47
- B10 — lower, 63.4
- B11 — higher, 105
- B12 — lower, 51.7
- B13 — lower, 76.5
- B14 — higher, 56800
- B15 — lower, 72
- B16 — higher, 468
- B17 — higher, 1100
- B18 — higher, 368
- B20 — lower, 49.9
- B21 — lower, 66.2
- B22 — lower, 25.6

Target: T2, Boi2 SH3 (BOI2_YEAST), P39969
T2 chain: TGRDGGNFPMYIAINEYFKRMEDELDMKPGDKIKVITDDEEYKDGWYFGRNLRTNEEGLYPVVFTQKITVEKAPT
Experiment: SPOT array

Point of comparison: B22, normalised SPOT signal, Boehringer light units (BLU); mean over the file's lines of this peptide 75.1. Against it:
- B1 — lower, 19.3
- B2 — lower, 5.7
- B3 — lower, 52.9
- B4 — lower, 74.5
- B5 — lower, 2.3
- B6 — lower, 40.5
- B7 — lower, 42.9
- B8 — higher, 216
- B9 — lower, 36.6
- B10 — lower, 53.9
- B11 — lower, 45.3
- B12 — lower, -0
- B13 — higher, 92
- B14 — higher, 361
- B15 — lower, 9
- B16 — lower, 9.1
- B17 — higher, 376
- B18 — lower, 73.1
- B19 — higher, 90.7
- B20 — lower, 39.5
- B21 — lower, 16.7

Target: T3, Rvs167 SH3 (RV167_YEAST), P39743
T3 chain: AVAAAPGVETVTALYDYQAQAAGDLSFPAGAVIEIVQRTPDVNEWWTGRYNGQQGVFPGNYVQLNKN
Experiment: SPOT array

Point of comparison: B10, normalised SPOT signal, Boehringer light units (BLU); mean over the file's lines of this peptide 43.7. Against it:
- B1 — lower, 15.4
- B2 — higher, 956
- B3 — lower, 35.3
- B4 — lower, 27
- B5 — higher, 53.5
- B6 — higher, 19000
- B7 — higher, 56.1
- B8 — higher, 565
- B9 — higher, 57.3
- B11 — lower, 25.3
- B12 — lower, 14.9
- B13 — lower, 42.9
- B14 — higher, 33600
- B15 — lower, 37.5
- B16 — higher, 786
- B17 — higher, 771
- B18 — higher, 98.3
- B19 — higher, 335
- B20 — lower, 29.4
- B21 — lower, 40.7
- B22 — lower, 20.9

Target: T4, Yfr024 SH3 (LSB3_YEAST), P43603
T4 chain: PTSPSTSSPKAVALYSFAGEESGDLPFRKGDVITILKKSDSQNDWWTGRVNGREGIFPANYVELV
Experiment: SPOT array

Point of comparison: B9, normalised SPOT signal, Boehringer light units (BLU); mean over the file's lines of this peptide 624. Against it:
- B1 — lower, 78
- B2 — higher, 8620
- B3 — lower, 302
- B4 — higher, 647
- B5 — lower, 58.5
- B6 — higher, 35800
- B7 — lower, 135
- B8 — higher, 25900
- B10 — lower, 343
- B11 — lower, 22.8
- B12 — higher, 4850
- B13 — higher, 1970
- B14 — higher, 35200
- B15 — lower, 114
- B16 — higher, 3160
- B17 — higher, 11600
- B18 — higher, 1780
- B19 — higher, 902
- B20 — lower, 86
- B21 — lower, 300
- B22 — lower, 85

Target: T5, Yhr016c SH3 (YSC84_YEAST), P32793
T5 chain: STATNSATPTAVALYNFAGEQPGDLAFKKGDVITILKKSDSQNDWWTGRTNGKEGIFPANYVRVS
Experiment: SPOT array

Point of comparison: B7, normalised SPOT signal, Boehringer light units (BLU); mean over the file's lines of this peptide 429. Against it:
- B1 — lower, -0
- B2 — higher, 2040
- B3 — lower, 150
- B4 — lower, 81.8
- B5 — lower, 0
- B6 — higher, 29500
- B8 — higher, 1020
- B9 — lower, 214
- B10 — higher, 522
- B11 — lower, 243
- B12 — lower, 35.2
- B13 — lower, 258
- B14 — higher, 117000
- B15 — lower, 330
- B16 — higher, 777
- B17 — higher, 1900
- B18 — lower, 317
- B19 — lower, 108
- B20 — lower, 205
- B21 — lower, 61.3
- B22 — lower, 282
